Experimental data reported in patent US20150239981A1.

Experiments:
[1] = molecular target: FcγRI (human) (UniProt P12314); assay: SPR
Target sequence in this assay (P12314 16-288): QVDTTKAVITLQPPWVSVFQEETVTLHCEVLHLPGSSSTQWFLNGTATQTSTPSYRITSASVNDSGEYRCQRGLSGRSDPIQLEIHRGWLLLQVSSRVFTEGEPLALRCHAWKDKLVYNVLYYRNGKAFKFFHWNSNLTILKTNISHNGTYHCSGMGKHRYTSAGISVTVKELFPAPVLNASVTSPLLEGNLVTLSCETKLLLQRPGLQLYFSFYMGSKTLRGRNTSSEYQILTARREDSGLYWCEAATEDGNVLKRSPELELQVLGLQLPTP

[2] = molecular target: FcγRIIA-R131 (human) (UniProt P12318); assay: SPR Biacore T100, antibody immobilised, receptor as analyte 0-12800 nM, steady state fit
[3] = molecular target: FcγRI (human) (UniProt P12314); assay: SPR Biacore T100, FcγRI captured by pentaHis antibody, antibody as analyte 0-100 nM
Target sequence in this assay (P12314 16-288 limits assumed): as the sequence (P12314 16-288) above

[4] = molecular target: FcγRIIIA-V158 (human) (UniProt P08637); assay: SPR Biacore T100, antibody immobilised, receptor as analyte 0-12800 nM, steady state fit
FcγRIIIA-V158 (human), sequence (P08637 17-208 F176V limits assumed): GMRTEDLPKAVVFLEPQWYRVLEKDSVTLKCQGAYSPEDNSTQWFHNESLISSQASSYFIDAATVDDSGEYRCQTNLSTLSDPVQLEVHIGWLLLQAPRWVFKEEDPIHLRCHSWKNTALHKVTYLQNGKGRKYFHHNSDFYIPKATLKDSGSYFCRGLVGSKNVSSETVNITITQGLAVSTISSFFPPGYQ

FcγRIIA-R131 (human), sequence (P12318 36-218 H167R limits assumed): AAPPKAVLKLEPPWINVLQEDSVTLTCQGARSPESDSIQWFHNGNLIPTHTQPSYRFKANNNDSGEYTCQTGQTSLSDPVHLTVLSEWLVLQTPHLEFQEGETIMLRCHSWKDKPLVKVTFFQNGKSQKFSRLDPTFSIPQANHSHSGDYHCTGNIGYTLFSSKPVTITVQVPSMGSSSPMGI
IgG4 SPLE (antibody not named, Tables 2A and 2B), sequence (constant): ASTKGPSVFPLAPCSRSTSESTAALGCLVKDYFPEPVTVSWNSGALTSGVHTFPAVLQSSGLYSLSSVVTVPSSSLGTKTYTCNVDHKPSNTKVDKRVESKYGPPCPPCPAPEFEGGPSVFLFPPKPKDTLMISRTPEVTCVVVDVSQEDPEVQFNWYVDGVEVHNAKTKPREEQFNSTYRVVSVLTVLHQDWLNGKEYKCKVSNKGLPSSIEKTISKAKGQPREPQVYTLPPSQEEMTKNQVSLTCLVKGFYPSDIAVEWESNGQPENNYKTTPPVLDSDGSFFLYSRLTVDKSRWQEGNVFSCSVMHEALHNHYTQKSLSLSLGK

Row | Substance | Kd [1] | Kd [2] | Kd [3] | further results
1 | IgG4 SPLE (antibody not named, Tables 2A and 2B) |  | 10000 nM |  | 
2 | CD20 antibody GA101 IgG1 P329G |  |  | 5.7 nM | 
3 | CD20 antibody GA101 IgG1 wildtype |  |  | 4.6 nM | 
4 | WT IgG1 (antibody not named, Tables 2A and 2B) |  | 2000 nM | 5 nM | Kd [4]: 700 nM

Second part, led by results:

Row | Kd [1] | Kd [2] | Kd [3] | Substance | further results
5 | 12 nM |  |  | GA P329G | 
6 | 14 nM |  |  | IgG4 Wt | 
